Experimental data reported in the DeepSol protein solubility set.

experiment: soluble on expression in E. coli; label from the status in PepcDB or PDB records

| Sequence | soluble on expression in E. coli |
| --- | --- |
| MVTAPPTDYFASFTTNDDALVLASVSSDAELELLNVWLRTHRREHPDSKVDVLQLPAADEPAPGDLARLVEELEADENRLVVPVRVFWVPGGLPTRLKVVALMSGRDTYRPPEILQRRILRKDPSRARVVAGEPAKVSELRKQWSETTVGENPRDFAHFVLRRAVLAIERVELRLLGPEYKSPRLVKPEMMASSRFREGLAKIPGATPEKAGEMLDELSTGWSRFSVDLIPSLGRAIFSRGFDPRIDYDRIEIEQMRHALEQHPAVLLFSHRSYLDGVIVPVAMQENRLPPVHTFAGINLSFGIMGPIFRHSGVIFLRRKLDDPLYKYVLRQYVGYLVEKRFNLNWSIEGTRSRTGKMLPPKLGLLAYVADAYLDGRSDDILLQPVSISFDQLHETAEYAEYARGGEKRPEGLSWLYNFVKAQGERNYGKIYVRFPEAVSMRQYLGEPHGPLVEDEAAKRLAMQKMAIEVAWRILRVTPVNATNLVSALLLTARGVALTLEQLHQALQDSLDYLEQKKTPVTNSAMRLRTLEGVRAAVDALSGGHPVTCVDTGREPVWRIAPENELEAAFYRNSLIHAFLETSLVELALAYAARTADAEGDPLQAFWTQVVRLRDLLKFDFYFADSAAFHQNVAEEMSWHADWEQQVRAGRDGIETLMRAKRPLLADAMLRPYFEAYTIVADVLRDAPAEIAEKDLTKLALGVGQQYVAQGRVRNNESVSALLFATARQVAADQGLLEHGPDLMEQRRAFRDELRGILRDLDTVDRYARELFAARERERRTKRDEAVLEHHHHHH | soluble |
| MVTAREVGRIGLRKLLQRIGIVAESMTPLATDPVEVTQLLDARWYDERLRALADELGRDPDSVRAEAAGYLREMAASLDERAVQAWRGFSRWLMRAYDVLVDEDQITQLRKLDRKATLAFAFSHRSYLDGMLLPEAILANRLSPALTFGGANLNFFPMGAWAKRTGAIFIRRQTKDIPVYRFVLRAYAAQLVQNHVNLTWSIEGGRTRTGKLRPPVFGILRYITDAVDEIDGPEVYLVPTSIVYDQLHEVEAMTTEAYGAVKRPEDLRFLVRLARQQGERLGRAYLDFGEPLPLRKRLQEMRADKSGTGSEIERIALDVEHRINRATPVTPTAVVSLALLGADRSLSISEVLATVRPLASYIAARNWAVAGAADLTNRSTIRWTLHQMVASGVVSVYDAGTEAVWGIGEDQHLVAAFYRNTAIHILVDRAVAELALLAAAETTTNGSVSPATVRDEALSLRDLLKFEFLFSGRAQFEKDLANEVLLIGSVVDTSKPAAAADVWRLLESADVLLAHLVLRPFLDAYHIVADRLAAHEDDSFDEEGFLAECLQVGKQWELQRNIASAESRSMELFKTALRLARHRELVDGADATDIAKRRQQFADEIATATRRVNTIAELARRQLEHHHHHH | not soluble |
| MVTFKPKVLHFVNATNLNQVDGTGTIVNEWIKAAGGQNALKQKGNMISVTTETLAKSDPDVIIVGSATTAEARAALKKNAVLSKLTAVKKNRVYGNPQGTFPWDRYSAEEALQVLWAAKKLHPDQFQLEHHHHHH | not soluble |
| MVVPLKRIDKIRWEIPKFDKRMRVPGRVYADEVLLEKMKNDRTLEQATNVAMLPGIYKYSIVMPDGHQGYGFPIGGVAAFDVKEGVISPGGIGYDINCGVRLIRTNLTEKEVRPRIKQLVDTLFKNVPSGVGSQGRIKLHWTQIDDVLVDGAKWAVDNGYGWERDLERLEEGGRMEGADPEAVSQRAKQRGAPQLGSLGSGNHFLEVQVVDKIFDPEVAKAYGLFEGQVVVMVHTGSRGLGHQVASDYLRIMERAIRKYRIPWPDRELVSVPFQSEEGQRYFSAMKAAANFAWANRQMITHWVRESFQEVFKQDPEGDLGMDIVYDVAHNIGKVEEHEVDGKRVKVIVHRKGATRAFPPGHEAVPRLYRDVGQPVLIPGSMGTASYILAGTEGAMKETFGSTCHGAGRVLSRKAATRQYRGDRIRQELLNRGIYVRAASMRVVAEEAPGAYKNVDNVVKVVSEAGIAKLVARMRPIGVAKG | soluble |
| MVYDDANKKWVPAGGSTGFSRVHIYHHTGNNAFRVVGRKIQDHQVVINCAIPKGLKYNQATQTFHQWRDARQVYGLNFGSKEDASVFASAMMHALEVLNSQDAGEKALFTAGCEV | soluble |
| MVYFAYGSNLCLEQMKKRCPEAIPMISVHLDDYKLVYNKYADIIPCEGEKVYGAIYEISLNDLKNLDKYEEYSDLYEKIDLIVQDINGISYEAFAYVMNEKGDKTPDKRYLDIINKGYEDWGIIY | not soluble |
| MWDQHMHCMFSGDSDADPVLMINSAINKGLDGICFTDHLDYDYKEEPGLFDLDIAAYEKRIKRLAIVLKEKGCPINIHWGIEIGLQPHITDKNNEVAKKYPFDLVIGSSHVVNGIDPYYPAFYKGKTEHEAYTEYFESILDNLHSGADFDVYGHIDYVVRYGPDKNKYYSYERYADIIDAILKEIISQGKGIELNTAGFKYGLGHSNPTEDVLKRYHELGGEIITVGADAHKPEHVAYDFDKVSNILKDAGFMYYTVFENRVPAFIKL | not soluble |
| MWDVKDIEQLSFARGLAIDETNDHQYKLTYQNLLPQSEDSQASGKPEFVNVTSHGKTILEAVSDVSIKDPPVYSDHLKVILLGEKLMRNQNVDQVLNHFIRDDELRRSSYLMAARGNAADVFTKGNPNQQQPMPSEKLIDLTTHSGYNGKIMIPLRIGRASVYSQNGYSYLIQAVKNEKGKAKYDGAGIIKRGSNKLVGFLSADETQTLSWVMGTIQGGVMPTTDKGHPITFEIKKSKTKIKPVIENGKPVFHISVKTKGILTEDQNPNENSFSKSYLHRLENIFEKKLERDVKQVMDKLQHEYKTDPVFLSDHIRIQHPDYWNKVKGHWDEIFSETDFKYDISFKIINFGTVGKLEHHHHHH | soluble |
| MWERSLRDTMRGRTSTLKVAILCFEKDRPKLEALKEILGRSYEVEFVDYSKDVWDDVLQYDCIVAYLASGIVVRGICGRLRGKWKDPAVIVLDKPLKHAVVMLGGHHGGNEVAKKLEEAGLKAVITTAMEFTEGYSVGVGFRKNATADEILEAIAMALEEVGGRMEEIRVISTVDAKRDSAIVEVANRLKRPLIFVRAEEINSMDIRETKAVKIGVKNVAEACAIYASNSGELILPKRVYGGVTVAIAW | not soluble |
| MWEYLIHGEPTPRLKPFLEGVGKALEAQGFRHNPESEAPNLVLNAITPENPRPYRRRAQATFVASVLELPEFPQDPLRELYPYLVRALSNVLLAYVPGQGVKFLTLELGHYGEPEGKGFYERVAARLRPIACSRLVINNIFEPDLEPELWQGDELTESMYRAGKKLKEWDLLPAPFPIEEILPPEDLRHVKRLYGIGGLSYGNLSVRKDEKRFWMSASGVDKANLREIGRDILMVKDYDPERNAILLSVPPHVEPRRVSVDAIEHWMIYREHPEVGAILHVHAWMEGVPATAFNYPCGTYELAQAVADKVREAPDPARAVVGLKNHGLTITGRSLDEILERIEGKLIRTVPMA | soluble |
| MWHIFERFVNEYERWFLVHRFAYLSELQAVKCLLPEGRGVEIGVGTGRFAVPLKIKIGVEPSERMAEIARKRGVFVLKGTAENLPLKDESFDFALMVTTICFVDDPERALKEAYRILKKGGYLIVGIVDRESFLGREYEKNKEKSVFYKNARFFSTEELMDLMRKAGFEEFKVVQTLFKHPSELSEIEPVKEGYGEGAFVVIRGTKK | soluble |
| MWINKVIKKRFETDIVQHVHIAKGTAMFQGVRLAVRCFVVDGVLIDTGAKSMENEFTSFFQQQDIDQVVITHFHEDHTGCAAFLQRSMGLPIYMNEPMIEYCRQKADYPLYRKIFWGKRDPFAAKPIGATFSSRNATWDVIPTPGHAIDHVVFLNRETGQLFSGDLYCQEKTKVILREEDIPTIIASLQHVLTYDFGDVFCAHAGYLPNGREALQRKLDYLLELQGTIIDLYEKGTPPKQIQALLFPKKYPIIFFSGGEWDSLHIVRSVIRDYEAKQASLEHHHHHH | soluble |
| MWNETVEHENAGNGWAAGESSFMTDRKPDSKATTLGERLPVPVTISNLIEHFSAQDDKYVVGTFRFATVLTVGIVKDISQDGTTYTYDLCDPNNTEMEYRTLKYDNEGSTFDHSSIVEGTRVRAIGKLKGFDGNNTIMLFNITPVEDDKDFTIFELEAEAARLFFQKNVSEKLKSVDSDGFQGMLAPPKSRMSQTSHQSSQGSDTKERLYAQPQKVMTGANQGDVLRERITAVLMAVPEGSRDEGRHVSWIAEQIQETNISIVRKCVGEMVENGLVYTTVDEETVSAI | not soluble |
| MWVEQIEKILTPRTPLILRCRNVPIPLIVSVFVECDMFDESLPISRAMKCLFVSVLCLSVGATAADAKPKIKVVNKTYSVNATTAQDLIQQMDARGPKGFWAYTDWYVKWTGGCDLSVSITYTMPKHKNEAKLDPELRKSWQSFVTALRKHEELHGAHGIQAAQEIEKSKCADGDSVIRKWSEQDKVLDQRTDHGKKDGVVLK | not soluble |
| MYADRDLPGAGGLAVRVIPCLDVDDGRVVKGVNFENLRDAGDPVELAAVYDAEGADELTFLDVTASSSGRATMLEVVRRTAEQVFIPLTVGGGVRTVADVDSLLRAGADKVAVNTAAIACPDLLADMARQFGSQCIVLSVDARTVPVGSAPTPSGWEVTTHGGRRGTGMDAVQWAARGADLGVGEILLNSMDADGTKAGFDLALLRAVRAAVTVPVIASGGAGAVEHFAPAVAAGADAVLAASVFHFRELTIGQVKAALAAEGITVR | not soluble |
| MYAYDIYEPIGRKDGEIFPVIFALHGFGGDELDMAGRLELLMDRFVVVSMRGDVEYGPTYGFYHMVTEGDPNAREVDYTSLRVAEFIDEVCNDYVSIDKNQIFLVGFDQGAVLTISIMQSYGGQYKAAALLSGRLPHYLEERPANLMLKDKRIFIGHGIEDAVIQIAEAEEIAQFFQKMGCNVEKHSYFVGHNVNEAEEDDLYSWFESFLP | not soluble |
| MYDSAPSDPVPFARLRFRDLQLLREIAAARSLTAVAERRGLTQPALSRTLRDIEAELGAQVFSRERGARLAPTAVGRHILARVDLLMADAGALHSELRAFEEGRGAHLRLGVIPFVSNALMQEVLKTLTGEPLRMSVSTFEGATDQLVLALRRQELDIVIGRLSADAGADTLAQEGLFSQTASIVMSEALYERRASLTLASLHGHPWVLPPASSPTRMAFVEAFVSRNAVAPVARIETTSARLVHSAISSNMASLGLLPLDIGQELERWGGVRCKAFPVPFRMPTVGLIVLAERRARAMNRVVRDVLHRCIARVAAYA | not soluble |
| MYEIKGHHHISMVTKNANENNHFYKNVLGLRRVKMTVNQDDPSMYHLFYGDKTGSPGTELSFFEIPLVGRTYRGTNAITRIGLLVPSEDSLHYWKERFEKFDVKHSEMTTYANRPALQFEDAEGLRLVLLVSNGEKVEHWETWEKSEVPAKHQIQGMGSVELTVRRLDKMASTLTEIFGYTEVSRNDQEAIFQSIKGEAFGEIVVKYLDGPTEKPGRGSIHHLAIRVKNDAELAYWEEQVKQRGFHSSGIIDRFYFKSLYFRESNGILFEIATDGPGFTVDGDVEHLGEKLDLPPFLEDQRAEIEANLAPIEEK | soluble |
| MYEPKPEHRFTFGLWTVGNVGRDPFGDAVRERLDPVYVVHKLAELGAYGVNLHDEDLIPRGTPPQERDQIVRRFKKALDETGLKVPMVTANLFSDPAFKDGAFTSPDPWVRAYALRKSLETMDLGAELGAEIYVVWPGREGAEVEATGKARKVWDWVREALNFMAAYAEDQGYGYRFALEPKPNEPRGDIYFATVGSMLAFIHTLDRPERFGLNPEFAHETMAGLNFVHAVAQALDAGKLFHIDLNDQRMSRFDQDLRFGSENLKAAFFLVDLLESSGYQGPRHFDAHALRTEDEEGVWAFARGCMRTYLILKERAEAFREDPEVKELLAAYYQEDPAALALLGPYSREKAEALKRAELPLEAKRRRGYALERLDQLAVEYLLGVRG | soluble |
| MYEYCRKRGLYPDAESYPWKSNAHYWLVTNLYQNMRANALADAELRRKAADELTCMTARINRGETIPEPVKQLPVMGGRPLNRAQALAKIAEIKAKFGLKGASVLEHHHHHH | not soluble |
| MYIAHIFRVSVAHLQFFNGPTTKNWAEPYQSIETSDTQSHITWQALIGRPFIFVEKKFLLFLSKKFSLVGNFPIPSNFADQFSSVSIPSESLPFSRKSFSDHHPWLPLISMESSWE | not soluble |
